Test [1] deals with T1, full-length human MMACHC (HsMMACHCFL) (human, UniProt Q9Y4U1 1-282).
T1 construct: human MMACHC, full length (C-terminal Pro-rich region is aa 236-282); source: E. coli BL21(DE3)R3, purified (Ni-Sepharose, Superdex 200)
T1 sequence (looked up): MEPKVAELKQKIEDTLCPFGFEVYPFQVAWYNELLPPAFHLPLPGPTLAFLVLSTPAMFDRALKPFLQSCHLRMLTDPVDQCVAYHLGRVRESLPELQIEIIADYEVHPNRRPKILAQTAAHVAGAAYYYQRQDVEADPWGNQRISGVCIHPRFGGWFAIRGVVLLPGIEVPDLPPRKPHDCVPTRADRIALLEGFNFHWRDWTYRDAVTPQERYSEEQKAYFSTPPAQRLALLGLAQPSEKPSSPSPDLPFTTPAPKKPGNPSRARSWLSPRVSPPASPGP
Nature of the test: native gel or EMSA; blue native-PAGE; 25 μM of each protein with 50 μM MeCbl and 8 mM GSH, preincubated in the dark at room temperature for 1 h; complex judged by an additional band. Conditions: both partners purified. For orientation: In EMSA bound probe runs differently from free probe, usually more slowly.

For a further test, the target named is T2, untagged HsMMACHCΔC (human, UniProt Q9Y4U1 1-235).
T2 construct: human MMACHC lacking the C-terminal Pro-rich region (aa 236-282); Form used for SAXS; not shown: His6, N-terminal, cleaved
T2 sequence (looked up): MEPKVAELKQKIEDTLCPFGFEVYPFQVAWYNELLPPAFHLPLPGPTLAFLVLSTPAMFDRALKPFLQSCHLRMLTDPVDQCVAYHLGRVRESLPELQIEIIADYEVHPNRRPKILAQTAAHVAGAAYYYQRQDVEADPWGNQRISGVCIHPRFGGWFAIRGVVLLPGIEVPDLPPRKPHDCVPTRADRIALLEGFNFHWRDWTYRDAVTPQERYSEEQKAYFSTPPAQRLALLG
As to the kind of experiment: SAXS; complex reconstituted from untagged proteins with MeCbl and GSH, purified by size-exclusion chromatography, 17 mg/ml; in-line HPLC column or batch mode; Diamond B21. To be noted: both partners purified. In general terms: In gel filtration, larger molecules generally elute earlier.

For another test, the target named is T3, HsMMACHCΔC (human, UniProt Q9Y4U1 1-235).
T3 construct: human MMACHC lacking the C-terminal Pro-rich region (aa 236-282); Form used in BN-PAGE and size-exclusion chromatography; source: E. coli BL21(DE3)R3, purified (Ni-Sepharose, Superdex 200)
T3 sequence (looked up): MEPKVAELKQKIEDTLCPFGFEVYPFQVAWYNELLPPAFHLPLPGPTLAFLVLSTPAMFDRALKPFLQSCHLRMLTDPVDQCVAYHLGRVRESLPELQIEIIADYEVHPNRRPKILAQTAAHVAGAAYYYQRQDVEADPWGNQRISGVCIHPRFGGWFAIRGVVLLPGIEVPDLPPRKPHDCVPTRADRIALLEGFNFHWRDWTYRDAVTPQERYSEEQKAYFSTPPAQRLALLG
Nature of the test: SEC; analytical size-exclusion chromatography of the two proteins with MeCbl and GSH; molecular weights from a calibration curve. To be noted: both partners purified.

In test [2] the target is T4, full-length human MMACHC (HsMMACHCFL) (human), Q9Y4U1.
T4 chain: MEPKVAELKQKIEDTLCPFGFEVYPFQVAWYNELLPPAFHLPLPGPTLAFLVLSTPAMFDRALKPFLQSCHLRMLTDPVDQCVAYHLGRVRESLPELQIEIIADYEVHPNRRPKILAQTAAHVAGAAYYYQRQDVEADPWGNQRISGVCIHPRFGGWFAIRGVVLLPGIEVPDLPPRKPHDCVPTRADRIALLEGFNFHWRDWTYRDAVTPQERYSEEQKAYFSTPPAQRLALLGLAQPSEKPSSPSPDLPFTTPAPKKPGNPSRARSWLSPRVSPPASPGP
As to the kind of experiment: native gel or EMSA; blue native-PAGE of single proteins, 25 μM; MMACHC alone and with MeCbl and GSH; MMADHC truncations alone. To be noted: remark: other sources report otherwise.

Test [3] has as its target T1, full-length human MMACHC (HsMMACHCFL). As to the kind of experiment: native MS; about 4 mg/ml MMADHC and MMACHC incubated with 0.5 mM MeCbl and 2 mM reduced GSH, desalted into 50 mM ammonium acetate pH 6.5; Q-TOF, electrospray, positive ion mode. Conditions: both partners purified.

What is called stoichiometry N is the number of molecules, sites or subunits per partner or assembly.

B1: HsMMADHCΔ153 (domain or fragment, human, UniProt Q9H3L0 154-296, looked up)
chain: PELLRKDFESLFPEVANGKLMILTVTQKTKNDMTVWSEEVEIEREVLLEKFINGAKEICYALRAEGYWADFIDPSSGLAFFGPYTNNTLFETDERYRHLGFSVDDLGCCKVIRHSLWGTHVVVGSIFTNATPDSHIMKKLSGN
notes: source: E. coli BL21(DE3)R3, purified (Ni-Sepharose, Superdex 200)
Take B1: the binding result in test [1] is given as “binds”.

B2: untagged MmMMADHCΔ128 (domain or fragment, Mus musculus, UniProt Q99LS1 129-296, looked up)
chain: PVEQEINSAETYFESAKVECAIQTCPELLRRDFESLFPEVANSKLMILTVTQKTENDMTVWSEEVEVEREVLLEKFISGAKEICYALRAEGYWADFIDPSSGVAFFGPYTNNTLFETDERYRHLGFSVDDLGCCKVIRHSLWGTHVVVGSIFTNATADSSIMRKLSGN
notes: mouse MMADHC aa 129-296; Form used for SAXS; not shown: His6, N-terminal, cleaved
Consider B2, for which the “stoichiometry N” value with untagged HsMMACHCΔC was determined as 1.

B3: MmMMADHCΔ128 (M. musculus MMADHC aa 129-296) (domain or fragment, Mus musculus, UniProt Q99LS1 129-296, looked up)
chain: PVEQEINSAETYFESAKVECAIQTCPELLRRDFESLFPEVANSKLMILTVTQKTENDMTVWSEEVEVEREVLLEKFISGAKEICYALRAEGYWADFIDPSSGVAFFGPYTNNTLFETDERYRHLGFSVDDLGCCKVIRHSLWGTHVVVGSIFTNATADSSIMRKLSGN
notes: Form used in BN-PAGE and size-exclusion chromatography; source: E. coli BL21(DE3)R3, purified (Ni-Sepharose, Superdex 200)
With B3, the “stoichiometry N” value in the test with HsMMACHCΔC stood at 1.

B4: full-length human MMACHC (HsMMACHCFL), Q9Y4U1 1-282 (natural protein)
chain: MEPKVAELKQKIEDTLCPFGFEVYPFQVAWYNELLPPAFHLPLPGPTLAFLVLSTPAMFDRALKPFLQSCHLRMLTDPVDQCVAYHLGRVRESLPELQIEIIADYEVHPNRRPKILAQTAAHVAGAAYYYQRQDVEADPWGNQRISGVCIHPRFGGWFAIRGVVLLPGIEVPDLPPRKPHDCVPTRADRIALLEGFNFHWRDWTYRDAVTPQERYSEEQKAYFSTPPAQRLALLGLAQPSEKPSSPSPDLPFTTPAPKKPGNPSRARSWLSPRVSPPASPGP
With B4, in test [2], the stoichiometry N was 2.

B5: HsMMADHCΔ61 (domain or fragment, human, UniProt Q9H3L0 62-296, looked up)
chain: MGPFGPQDQRFQLPGNIGFDCHLNGTASQKKSLVHKTLPDVLAEPLSSERHEFVMAQYVNEFQGNDAPVEQEINSAETYFESARVECAIQTCPELLRKDFESLFPEVANGKLMILTVTQKTKNDMTVWSEEVEIEREVLLEKFINGAKEICYALRAEGYWADFIDPSSGLAFFGPYTNNTLFETDERYRHLGFSVDDLGCCKVIRHSLWGTHVVVGSIFTNATPDSHIMKKLSGN
notes: human MMADHC (296 aa) with N-terminal truncation Δ61; by analogy with MmMMADHCΔ128 = aa 129-296; source: E. coli BL21(DE3)R3, purified (Ni-Sepharose, Superdex 200)
B5: the binding result in test [1] is “binds”.

B6: HsMMADHCΔ123 (domain or fragment, human, UniProt Q9H3L0 124-296, looked up)
chain: QGNDAPVEQEINSAETYFESARVECAIQTCPELLRKDFESLFPEVANGKLMILTVTQKTKNDMTVWSEEVEIEREVLLEKFINGAKEICYALRAEGYWADFIDPSSGLAFFGPYTNNTLFETDERYRHLGFSVDDLGCCKVIRHSLWGTHVVVGSIFTNATPDSHIMKKLSGN
notes: human MMADHC (296 aa) with N-terminal truncation Δ123; source: E. coli BL21(DE3)R3, purified (Ni-Sepharose, Superdex 200)
For the molecule B6, in test [3], the “stoichiometry N” value came to 1.

B7: HsMMADHCΔ123-L259P (domain or fragment, human, UniProt Q9H3L0 124-296, looked up)
chain: QGNDAPVEQEINSAETYFESARVECAIQTCPELLRKDFESLFPEVANGKLMILTVTQKTKNDMTVWSEEVEIEREVLLEKFINGAKEICYALRAEGYWADFIDPSSGLAFFGPYTNNTLFETDERYRHLGFSVDDPGCCKVIRHSLWGTHVVVGSIFTNATPDSHIMKKLSGN
notes: human MMADHC Δ123 construct with p.L259P (stretch 3); also called p.L259P; source: E. coli BL21(DE3)R3, purified (Ni-Sepharose, Superdex 200)
On to B7, for which the binding result in test [1] was “binds”.

B8: HsMMADHCΔ123-D226A (domain or fragment, human, UniProt Q9H3L0 124-296, looked up)
chain: QGNDAPVEQEINSAETYFESARVECAIQTCPELLRKDFESLFPEVANGKLMILTVTQKTKNDMTVWSEEVEIEREVLLEKFINGAKEICYALRAEGYWADFIAPSSGLAFFGPYTNNTLFETDERYRHLGFSVDDLGCCKVIRHSLWGTHVVVGSIFTNATPDSHIMKKLSGN
notes: human MMADHC Δ123 construct with p.D226A (stretch 2); also called p.D226A; source: E. coli BL21(DE3)R3, purified (Ni-Sepharose, Superdex 200)
Take B8: the binding result in test [1] is given as “binds”.

B9: HsMMADHCΔ123-M186A (domain or fragment, human, UniProt Q9H3L0 124-296, looked up)
chain: QGNDAPVEQEINSAETYFESARVECAIQTCPELLRKDFESLFPEVANGKLMILTVTQKTKNDATVWSEEVEIEREVLLEKFINGAKEICYALRAEGYWADFIDPSSGLAFFGPYTNNTLFETDERYRHLGFSVDDLGCCKVIRHSLWGTHVVVGSIFTNATPDSHIMKKLSGN
notes: human MMADHC Δ123 construct with p.M186A (stretch 1); also called p.M186A; source: E. coli BL21(DE3)R3, purified (Ni-Sepharose, Superdex 200)
Turning to B9, the binding result in test [1] is recorded as “binds”.

Values taken from paper PMC4705923, “Structural Insights into the MMACHC-MMADHC Protein Complex Involved in Vitamin B12 Trafficking*” (The Journal of Biological Chemistry, 2015).
